From patent publication US20260144882A1 (BIO THERA SOLUTIONS, published 2026)
Changes are numbered by the printed parent chain.

T1: human Nectin-4 extracellular antigen hNectin-4-His (human, UniProt Q96NY8 32-349)
T1 construct: C-terminal 8xHis tag included
T1 sequence: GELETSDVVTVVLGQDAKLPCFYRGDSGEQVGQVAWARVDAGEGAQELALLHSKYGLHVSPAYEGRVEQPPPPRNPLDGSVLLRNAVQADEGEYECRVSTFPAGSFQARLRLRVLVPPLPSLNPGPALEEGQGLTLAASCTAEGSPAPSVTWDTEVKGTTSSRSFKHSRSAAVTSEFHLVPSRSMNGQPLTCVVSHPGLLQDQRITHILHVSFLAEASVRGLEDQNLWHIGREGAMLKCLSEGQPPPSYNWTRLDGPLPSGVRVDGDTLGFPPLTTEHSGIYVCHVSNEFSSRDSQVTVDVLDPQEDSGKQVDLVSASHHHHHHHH

B1: 1G8-1G5 scFv (scFv, V domains shown)
VH: EVQLVESGGGLVQPGGSLRLSCAASGYNFTTSAMSWVRQAPGKGLEWVSRIYADTAYNDYADSVKGRFTISRDNSKNTLYLQMNSLRAEDTAVYYCARQTEDRSYGYDLDYWGQGTLVTVSS
VL: DIQMTQSPSSLSASVGDRVTITCRASQGISSYLAWYQQKPGKAPKLLIYAASSLQSGVPSRFSGSGSGTDFTLTISSLQPEDFATYYCQQHYTTPPTFGQGTKVEIKR
notes: phage clone supernatant
B2: 1G8-1G9 scFv (scFv, V domains shown)
VH: EVQLVESGGGLVQPGGSLRLSCAASGFNFGDFAMSWVRQAPGKGLEWVSRIYSGDDNASYADSVKGRFTISRDNSKNTLYLQMNSLRAEDTAVYYCARQTEDRSYGYDLDYWGQGTLVTVSS
VL: B1 VL
notes: phage clone supernatant
B3: 1G8-1G12 scFv (scFv, V domains shown)
VH: B1 VH with T31S, A53S, D54I, T55S, A56G, Y57N, N58T
VL: B1 VL
notes: phage clone supernatant
B4: 1G8-1H1 scFv (scFv, V domains shown)
VH: EVQLVESGGGLVQPGGSLRLSCAASGDTFSGYAMSWVRQAPGKGLEWVSRIYPYSSVRDYADSVKGRFTISRDNSKNTLYLQMNSLRAEDTAVYYCARQTEDRSYGYDLDYWGQGTLVTVSS
VL: B1 VL
notes: phage clone supernatant
B5: 1G8-1H6 scFv (scFv, V domains shown)
VH: B4 VH with D27F, T28N, Y32F, Y54T, V57E, R58S
VL: B1 VL
notes: phage clone supernatant
B6: 1G8-2A1 scFv (scFv, V domains shown)
VH: B2 VH with F27Y, N28S, G30D, D31G, Y52S, S53G, G54H, D56W, N57S, A58S
VL: B1 VL
notes: phage clone supernatant
B7: 1G8-2A4 scFv (scFv, V domains shown)
VH: B4 VH with G31S, Y32N, P53G, Y54G, S56W, V57D, R58T
VL: B1 VL
notes: phage clone supernatant
B8: 1G8-2A7 scFv (scFv, V domains shown)
VH: B4 VH with D27Y, T28S, G31D, Y52S, P53A, S55G, S56W, V57G, R58K, D59S
VL: B1 VL
notes: phage clone supernatant
B9: 1G8-2A11 scFv (scFv, V domains shown)
VH: EVQLVESGGGLVQPGGSLRLSCAASGDSFYNYSMSWVRQAPGKGLEWVSRISSDGWETFYADSVKGRFTISRDNSKNTLYLQMNSLRAEDTAVYYCARQTEDRSYGYDLDYWGQGTLVTVSS
VL: B1 VL
notes: phage clone supernatant
B10: 1G8-2B3 scFv (scFv, V domains shown)
VH: B1 VH with A53Q, T55S, A56S, Y57T, N58T
VL: B1 VL
notes: phage clone supernatant
B11: 1G8-2B5 scFv (scFv, V domains shown)
VH: B2 VH with F27Y, D31N, F32Y, Y52K, G54H, D56S, N57T, A58S, S59H
VL: B1 VL
notes: phage clone supernatant
B12: 1G8-2B6 scFv (scFv, V domains shown)
VH: B4 VH with D27G, T28S, S30G, P53A, S55K, V57E, R58N
VL: B1 VL
notes: phage clone supernatant
B13: 1G8-2B10 scFv (scFv, V domains shown)
VH: EVQLVESGGGLVQPGGSLRLSCAASGFSFTNNAMSWVRQAPGKGLEWVSRIDTIGGTSSYADSVKGRFTISRDNSKNTLYLQMNSLRAEDTAVYYCARQTEDRSYGYDLDYWGQGTLVTVSS
VL: B1 VL
notes: phage clone supernatant
B14: 1G8-2C6 scFv (scFv, V domains shown)
VH: B4 VH with T28N, G31S, P53G, Y54S, S55D, V57T, R58P
VL: B1 VL
notes: phage clone supernatant

Target: T1, human Nectin-4 extracellular antigen …
Test: ELISA, phage scFv supernatant 1:50

Row | Binder | OD value [OD]
1 | B1 | 1.48
2 | B2 | 1.55
3 | B3 | 1.55
4 | B4 | 1.4
5 | B5 | 1.58
6 | B6 | 1.6
7 | B7 | 1.54
8 | B8 | 1.6
9 | B9 | 1.54
10 | B10 | 1.57
11 | B11 | 1.58
12 | B12 | 1.56
13 | B13 | 1.56
14 | B14 | 1.58
